Data set [1] has as its target T1, LexA (Salmonella) (Salmonella enterica serotype Agona strain 47SA97) (UniProt B5F1Q6).
T1 sequence: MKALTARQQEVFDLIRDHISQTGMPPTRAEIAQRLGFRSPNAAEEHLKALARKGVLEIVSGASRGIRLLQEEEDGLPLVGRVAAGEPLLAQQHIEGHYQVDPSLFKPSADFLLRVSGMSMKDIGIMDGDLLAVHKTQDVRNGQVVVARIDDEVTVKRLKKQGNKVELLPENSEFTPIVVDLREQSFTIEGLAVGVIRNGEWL
Briefly: EMSA. The following applies: EMSA: 40 ng DNA probe, 0-600 ng LexA, binding buffer E (composition not stated; Thermo E33075 EMSA kit), 10 uL, 20 min on ice; 6% native Tris-glycine PAGE ….

The target of data set [2] is T2, LexA (E. coli) (Escherichia coli MG1655) (UniProt P0A7C2).
T2 sequence: T1 sequence with L56I, D74E, S108N, T175K, E183Q, E200D
In words: EMSA. The following applies: EMSA: 40 ng DNA probe, 0-600 ng LexA, binding buffer E (composition not stated; Thermo E33075 EMSA kit), 10 uL, 20 min on ice; 6% native Tris-glycine PAGE …. On the technique in general: A gel shift assay detects complexes by their altered migration in electrophoresis.

Changes are numbered by the printed parent chain.

Here are results for three sequences from paper PMC9927553.

In the case of “ACACACCTGATTTATTCACTGATTAACTTTGTCATCAATCATAAATACCATGACTTTTTGATAATGCAACGCCAAATAAGTTGTTTTTTTACAGTATCATTTTATGGTGCTATGAAGATTTGCATTTCTGAACGATAATCTATAATCGGTTACATATTAATCAGGAGGCGT (double strand) [PsgaDC* probe]”, the binding entry in data set [1] and in data set [2] was “no binding” in each case.
Regarding “ACACACCTGATTTATTCACTGATTAACTTTGTCATCAATCATAAATACCATGACTTTTTGATAATGCAACGCCAAATACTGTGTTTTTTTACAGTATCATTTTATGGTGCTATGAAGATTTGCATTTCTGAACGATAATCTATAATCGGTTACATATTAATCAGGAGGCGT (double strand) [PsgaDC probe]”, the binding result in data set [1] and in data set [2] was “binds” each time.
As for “AGTTGTTCCGCAGTAGCCATTATTCAATCTCCATAAGACGGGGCAACTTTACCAATTTTATACAATAAAGTCTGTGTAGTATGACAGGGTTTAAGCACTTAATCCCCTCTAGAATTTTGTACACTCACCACCCCTACATGATTATAAATAGTCGTTCTAGATACACCATATCGCCTAGCAACA (double strand) [PsgiAT probe]”, the binding entry in data set [1] and in data set [2] was “no binding” each time.
